According to patent publication US20140199692A1:

Molecular target: eukaryotic translation initiation factor eIF4E (endogenous, in lysates of human cell lines) (UniProt P06730)
Assay: immunoprecipitation of eIF4E from nuclear lysates

Sequence of eukaryotic translation initiation factor eIF4E (endogenous, in lysates of human cell lines) (P06730 2-217 limits assumed): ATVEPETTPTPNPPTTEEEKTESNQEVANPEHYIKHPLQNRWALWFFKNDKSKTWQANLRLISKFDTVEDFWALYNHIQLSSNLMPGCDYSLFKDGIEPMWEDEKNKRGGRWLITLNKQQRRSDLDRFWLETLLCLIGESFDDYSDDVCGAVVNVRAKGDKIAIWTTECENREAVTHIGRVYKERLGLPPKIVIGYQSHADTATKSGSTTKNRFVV

efficiency of IP: < 80%
Substance: mouse monoclonal anti-eIF4E Ab (BD Transduction Laboratories) (antibody)
